Columns and labels:
[1] = molecular target: UDP-glucose pyrophosphorylase RoGalU2 of Rhodococcus opacus 1CP (Rhodococcus opacus 1CP); assay: SEC; Superdex 200 10/300 GL, non-denaturing, 50 mM Hepes pH 7.0, 1 mM magnesium chloride; RoGalU2 at 0.2 and 2.0 mg/mL, in duplicates; mass from a calibration with standard proteins
[2] = substrate: O=P(O)(O)O[C@H]1O[C@H](CO)[C@@H](O)[C@H](O)[C@H]1O; assay: HPLC of UDP-glucose formation, initial rates; assay type: biochemical, Rhodococcus opacus; settings: 1.5 mM UTP, 1 mM MgCl2, 50 mM Hepes pH 7.4, 42 °C, glucose 1-phosphate 0.05–10 mM, Michaelis-Menten fit of the low range only, non-Michaelis behaviour above 10 mM
Source text: (§1) HPLC of UDP-glucose formation, initial rates on RoGalU2

[3] = substrate: O=c1ccn([C@@H]2O[C@H](COP(=O)(O)OP(=O)(O)OP(=O)(O)O)[C@@H](O)[C@H]2O)c(=O)[nH]1; assay: HPLC of UDP-glucose formation, initial rates; assay type: biochemical, Rhodococcus opacus; settings: 250 mM glucose 1-phosphate, 1 mM MgCl2, 50 mM Hepes pH 7.4, 42 °C, UTP 0.01–5 mM, Yano and Koga substrate inhibition fit
Source text: as §1

Molecule | stoichiometry N [1] | Km [2] | kcat [2] | kcat/Km [2] | Km [3] | kcat [3] | kcat/Km [3]
UDP-glucose pyrophosphorylase RoGalU2 of Rhodococcus opacus 1CP (enzyme) | 6 |  |  |  |  |  | 
RoGalU2 (Rhodococcus opacus) (protein, full length, N-terminal His10 tag (pET16bP), codon-optimized gene in E. coli BL21(DE3) pLysS, HisTrap purified; 34 kDa subunit, hexamer by SEC (188 kDa)) MTDAAPHTASAFRTAVVPAAGMGTRFLPATKTVPKELLPVVDTPGIELVAGEAADSGAGRLVIVTSPGKDGVVAHFVEDLVLESKLEASGKYHLLEKVRKAPGLLEVESVIQDEPLGLGHAVGCAESVLDDDEDAIAVLLPDDLVMPRGVLETMSRVRRKRGGTVLCAIDVPKDQVSAYGVFEVETVPDATNPDVLKVIGMVEKPAIEDAPSTFAAAGRYLLDRAIFDALRRIEPGAGGELQLTDAIALLIKEGHPVHVVVHRGTRHDLGNPGGYLRAAVDFALDMEEYGPSLREWLIDRLKRTDS |  | 900 µM | 3.7 s⁻¹ | 4000 M⁻¹ s⁻¹ | 510 µM | 96.2 s⁻¹ | 190000 M⁻¹ s⁻¹

Reference: paper PMC6888414, “Two Homologous Enzymes of the GalU Family in Rhodococcus opacus 1CP—RoGalU1 and RoGalU2” (International Journal of Molecular Sciences, 2019)
